Test results taken from the DeepSol protein solubility set.

Assay: soluble on expression in E. coli; label from the status in PepcDB or PDB records

Sequence | soluble on expression in E. coli
MGSDKIHHHHHHMADNETIPSCANCSAVWQKSGTTNCWSSPDNRPGQPANCPSKTSPDIIDESFAEYRGDGDDARLARVAARVEGLCYQKMQGSDAVVARWTRVEDTVALAKLMGWTKVGIATCIGLLEETKQLVTILEAQGLEPASVCCKSGSIDKLELGLEESDKVRPGTFEPACNPIAQAEILNRCGTQMNIIVGLCVGHDMLFTKHSKAPVTTLVCKDRVTGHNPAAVLYGQNFYYKRLKVQPVAVPTEEK | not soluble
MKTNTIITIGRQFGSAGREIGYQIADYFGIKLYDKEMLSRAAKESGICEEIFETHDEKPTNSFLYSLVMDTYSMGYSGGSYSDMPINHKVFLAQFDAIKKIADEGPCILVGRCADYALESYDNVVNVFIHADLDARIRRIARIYNLTDAKAKDMIIKTDKKRASYYNYYTNKKWSDSESYELCLSSSELGIEGTAKAIEQYVMLKEQIQRDDKIL | not soluble
MSLQTKQKGLQEVLIAAIKRATNEKTLVSFVKQIDWVDPLLFYAAGKRISFENRCYFADPAQHVIFAGIGSVFTIANSSHKRFQTARDEWEKVKENAFVQRDEYEFGTGPLLFGGFSFDPEKEKTDLWKEFKDTTFSLPAFLLTVKNEKAWLTMNTFVSATDCAETLSNEMISLEEKILGESRCALNGSKLTVISKVEVDPKGWMKAIEKVQDEMKQGNVQKVVLARELKVEMNHSIDSALVLEALRIGQPDCYVFSFDYKGACFLGATPERLIRKEDEKFTSMCLAGSIGHGHSIEESKRNSNALLHDEKNLAEHGYVVNMIRSVLNEHCEYVNIPESPGLLTTKNLIHLYTPVEAKGDASLLTMVEELHPTPALGGTPRLEAMKLIRDVELLDRGLYGAPIGWIDDEGNGEFAVALRCGLLNGEKASLFAGCGIVIDSIPQLEYEETSLKFRPMLGALEELMKEGHHHHHH | soluble
MGHHHHHHSHGLNSSRNLLIISQKSDQILNYITNGADRGATKIPVLGGHTGHSQNMIMTTLSTHEVPKVQEEIQKIDETAFIVIIPASTVMGRGFSLQKDYKSVPNDFINP | soluble
MRVYGRKILEEALRNNVPIKKVFFQKMKNPGSYFLSLVKEVEKRGIKYSFESEERLKNLSGTKKHQGVVFDIGEYRYSSVEEILEAKTPPLIVLLDQIQDPHNLGAIVRTSVGAGANGIIIPKDKSVKVTETVVKVSAGTVFRARIAVVTNLARTIEELKEKGVWTYASDIDGTPIYEEDFTFPTAFVFGNEGEGIRRLVREKCDRVVTIPMENDIDSLNVSVSVGVVLFEAVRQRRMKGAG | soluble
MSLVRIKDIALKAKVSSATVSRILNEDESLSVAGETRQRVINIAEELGYQTVAKRRKSRGQKQRAQPLIGVLSCLSPDQERQDPYFSSIRKGIEKECFEQEIFITNSIHLGSFQEHIFRELDGVIVIGRVHDEAVKHISGRLEHAVFINHSPDPQAYDSIGIDFESASRQAIDHLFDLGYKRLGYIGGQEKEHTLKDGQSIRRTIEDKRLTAFLESAAPQPEHVLIGEYSMREGYRLMKKAIDQGHLPEAFFIASDSMAIGALKALQEAGLQVPRDTAIVSFNGIEEAEFASTPLTTVKVYTEEMGRTGVKLLLDRLNGRTLPQHVTLPTTLIVRQSCGCTAKEGHHHHHH | soluble
MYMNVLIISDSHGLEEELQTIAKRHEAEVDLMIHCGDSELETRHPALEPYAVVKGNCDFAGDFKDELLLTAGSRKILVTHGHLHGIKQTLLNVYYRAEELGADVICFGHSHIAGSEVLRGKLMINPGSIRLPRVRRTESYAILTLENDAATVRFYDQAGNEIEDLQNRVTLLEHHHHHH | not soluble
MGSDKIHHHHHHMGFDLDVEKKKENRNIPQANNLKIKVIGVGGAGNNAINRMIEIGIHGVEFVAVNTDLQVLEASNADVKIQIGENITRGLGAGGRPEIGEQAALESEEKIREVLQDTHMVFITAGFGGGTGTGASPVIAKIAKEMGILTVAIVTTPFYFEGPERLKKAIEGLKKLRKHVDTLIKISNNKLMEELPRDVKIKDAFLKADETLHQGVKGISELITKRGYINLDFADIESVMKDAGAAILGIGVGKGEHRAREAAKKAMESKLIEHPVENASSIVFNITAPSNIRMEEVHEAAMIIRQNSSEDADVKFGLIFDDEVPDDEIRVIFIATRFPDEDKILFPEGDIPAIYRYGLEGLL | not soluble
